# From patent US20070031832A1
# B1: 2c7pan9 (peptide, not shown: large carriers)
# chain: GDPNSASGTA
# B2: 2c7pan42 (peptide, not shown: large carriers)
# chain: GDPNSSSVDKLGYWRVTESSNE
# B3: 2c7pan14 (peptide, not shown: large carriers)
# chain: GDPNSRGKSREYLS
# B4: 2c7pan8 (peptide, not shown: large carriers)
# chain: GDPNSSTSPR
# B5: 2c7pan26 (peptide, not shown: large carriers)
# chain: GDPRTHR
# Molecular target: anti-Der p 1 monoclonal antibody 2C7
# Assay: T7-DELFIA, 50 µl phage lysate on 2C7-coated wells, time resolved fluorometry
row,TRF,Molecule
1,17000 TRF,B1
2,64000 TRF,B2
3,1800 TRF,B3
4,1900 TRF,B4
5,8500 TRF,B5

# Molecular target: anti-Der p 1 monoclonal antibody 2C7
# Assay: T7-DELFIA, comparison phage on 2C7-coated wells, time resolved fluorometry
row,TRF,Molecule
1,500 TRF,T7wt
